Assay results: the DeepSol protein solubility set

Assay: soluble on expression in E. coli; label from the status in PepcDB or PDB records

Sequence	soluble on expression in E. coli
MSLDVSLKLKGIDGALEDNVKAYLSSIPEKDYSTSLRFQARLDQSITEALNALGYYHAKISYSISEGNDELIVNIHKGLPVKIKVMDVVISGEAKEDEEFTNLIAKSPLKVGRILNQGEYDSLKSGIRNLALQRGYFNGDFKLNKLEVIPELNEANVRLHYDSGIRYHFGPVEITGSQIWENRVESMRPFEIGEPYLVSDVGEYNQNLSNTDWFSSVFVEPDLSKLEDGRELPIKVSLAPAAKNQIETGIGYSTDTGVRGTLKWKKPWVSARGHSFNTALSLSKPEQTITAGYKIPLDDVLREYYQLQFGLKHLDNRDTESLESNLAVERHWLTDGGWHKTVYVRHLYENFSQGLQDDGVQFVLPGATFSRTRVRGGSMPMWGDKQSVTVEYGDPALLSETRVLRLLGRSSWIRGIGENHRGLFRLEGGANITEEFEKLSPSLRFFAGGDNNIRGYGYESISPVDESGALTGAKYILSSTLEYQYRVYGNWWAATFYDIGDAFNDTPEWKSGAGVGIRWASPVGPVSFDFAWGLDEKPNNEFRIHFSLGPELEGHHHHHH	not soluble
MGSDKIHHHHHHMIVLIGGEKGGSGKSCLAQNIAVFLTTECNASVIMVDCDPQRTTSDWIQARNNNPKLASINCVQLYGKIRNDLLSLEQHYDVVIVDCGGQDNLALRATMSVAAYILMPLRPKRRDLKTVCHMDDIVATCKMINPKLRASFVITQCPNLPNQANRILEAKEVCKTYDINVLDAITYCRNVYDDSEESGLSVIEIDPNGKAADEIRTIACELFQVDCAANLEDRLHPALLAQSAGKGQMHNGLTNSGLTNNGLLNNGLLHQTQPTHLNTKQRGQNGTQRPQEKRYAI	not soluble
MGSDKIHHHHHHATSFTDSLDLTQYRNDVKTLASDAFGGRAPLSEGEQLTLDYLEKAFKEMGLKPAFGDSYLQAVPLAKISADQNMQLDIGGLKLANGSEFTARTQRIAEKVSLKNSDVVFVGYGINAPEYGWNDYQGLDVKGKTVIVLVNDPGFATQDPNVFKGNAMTYYGRWTYKYEEAARQGAEAVFIVHETAPAAYGWGVVQNSNTGTKFALVDTNNNQGQVGVMGWVQYEVAQNIFAKAGMNFDNLKQQAAKPNFKALPLKLRATLTLNNTIERAESHNVAALLPGKTRPDEVVMMHAHWDHLGTIIENGKPEILNGAVDNASGVAGVLALARYFKQQAEIAPLERSIIFSAFTAEETGLIGAQHFAQHPSVPTKDIVAFLNIDGMNVGQSVDYILRYGDGVSELEQYLDKAAKAQGRLVKADPRPQNGLMFRSDHFALAQQGVPGLLFMSLGDTDPDYIAHKYHQGADDYDPNWSLAGVSQDLELMAQMLTMLANSRDWPRWIESSDFKAKREQDGRN	not soluble
MGSDKIHHHHHHMTVKSSTSSLHDRSSTSTSLMPGFADPVFDAQAVFRASLLATAYPGRVVPVDRALASPRPFSSATAALCLTLMDFETLAWLDRQAASGEAVAWLRFHCGLPVTDDPMKARFAVVTDALTMPRLVEFHPGDVEYPDRSMTLIIQVPSFNEGPATTWTGPGIKTSARVSIGGLPFWYWSDWEMNRELYPRGIDVIFTNGNALVGLPRTIAVEA	not soluble
MGSDKIHHHHHHMQIEFYRRKYGRGCRPHLSLCIEGQHYHVDTSPADYGMNLITHAHTDHYGQRNMDNSRAVASRESAAILEACTGKVFSGVTFEVGSRIRLSDTKIKTYPTYHMHGSAAFYFQDSDILITGDVKDYSKLPKCKILVTEATYGHPSHIFEEEVEKLLKVASSNKAVFGAYPIGKAQRVAEILSKDGFGFSAEEKIARICSAVGLKPSDGPLIASPRNLPLYGGGYILTAHKFYRWPRITLSDHLDYRGILEMIDHCEPEEVLFYHGKPSKRLLEHLKNEGIVCRTLNDLPVMK	not soluble
SAAAADERSPEDGEDEEEEEQLVLVELSGIIDSDFLSKCENKCKVLGIDTERPILQVDSCVFAGEYEDTLGTCVIFEENVEHADTEGNNKTVLKYKCHTMKKLSMTRTLLTEKKEGEENIGGVEWLQIKDNDFSYRPNMICNFLHENEDEEVVASAPDKSLELEEEEIQMNDSSNLSCEQEKPMHLEIEDSGPLIDIPSETEGSVFMETQMLP	not soluble
MGSDKIHHHHHHMDNNTLDEYRAVYLTAEDLRLAASILYNAYHDDPFFVDTLSSSDKFAYEQKLRAAIREELNTLWQQKQALIGLFDGAHLMGVACVVTQKVPLGEGRYWHWRLKMLLGTGWQSTQAMMKKESTILELLPSQRCGILQFIALAPNEQGKGLGHQLVQAVVSWCDEQPNLEGIGVFTTQEAHTHLFKQHDFVSLGELVIGSVTGQLLFYTGQQDE	not soluble
MGSDKIHHHHHHMPIAIYQGHHHSLAPADINIVIDVIRAFTVAHYAFIGGAKEILLVRTADEAFALKDTYPDYVLTGEEKGVGISGFDLDNSPKRMAGQNMTDKSLIQKTTNGVTAALGALNAKHLFVTGFSNAKTTAQHVKKLVANDCVINIVASHPSGDDDMACAEYIKGIIEGTNVVTAAEAIERIKGSSVAEKFFDCRQPLFDSEDIVYCTKELTGDFVMKVKQDGEVPTIERVII	not soluble
MSTQGEIRVGPSHQAKLPDLQPFPSPDGDTVTQHEELVWMPGVNDCDLLMYLRAARSMAAFAGMCDGGSTEDGCVAASRDDTTLNALNTLHESGYDAGKALQRLVKKPVPKLIEKCWTEDEVKRFVKGLRQYGKNFFRIRKELLPNKETGELITFYYYWKKTPEAALEHHHHHH	soluble
MRGSHHHHHHTDPALRAAFRMSEQPRTIKIYNLLAGTNEFIGEGDAYIPPHTGLPANSTDIAPPDIPAGFVAVFNSDESSWHLVEDHRGKTVYDVASGNALFISELGPLPENVTWLSPEGEFQKWNGTAWVKDTEAEKLFRIREAEETKNNLMQVASEHIAPLQDAADLEIATEEEISLLEAWKKYRVLLNRVDTSTAQDIEWPALPGLCGR	soluble
MSLSHSEAGQAASVRRVLAVIPARGGSKGVPAKNLLPVGGVPLVARAVRECRATRLVTDVVVSTDDHAIAAAAREAGAEVVLRPAAIAGDTATSEAAVLHAMDTHEALHGAAVDVVLLVQCTSPFIVREDVDGVVHAIVGKGADTALTVAPFHGFVWRDADDAPGALGAERAAVEGGTDTLVTGTATSGGYGINHDKSFRPRRQDRPQDLLETGAVYGMDATGFREARHRFFGRTELVRTDPARVLEIDDPHDLARARALAPLFDANRPGALPTAEDIDAVVLDFDGTQTDDRVLIDSDGREFVSVHRGDGLGIAALRKSGLTMLILSTEQNPVVAARARKLKIPVLHGIDRKDLALKQWCEEQGIAPERVLYVGNDVNDLPCFALVGWPVAVASAHDVVRGAARAVTTVPGGDGAIREIASWILGPSLDSLDKEGHHHHHH	soluble
MGSDKIHHHHHHMAESETGDKAGQASVKTALRVIEIMEIYAREGRSLTLTELAKLLGAPMSSCLGLIRTLASLGYLYETGRRQGYYPTSRLLNIAQRISRNDPLLERVQPVLETLRDATGETVIFGKLQDDGRVLYLEVRESQNPVRYTATPGELRDVHINSIGRAILGAMTDAARDAALAKVSFQPRTGRTVASREALEREIAMWQQQGWYPNFGESFPDLGAIAVPVEIGGAVYGMSVAGPIHRVESSVDPIVAALLRGQDALRT	not soluble
MKILYIVLDGAADSPTSPRKTLEEASKPNIDSLGSHAVCGMVYTVKPGVAPQSDYATLSLLGYNPDEYYPGRGPLEAFGAGIEMRRGDIALRANFATVDPGTLRIIDRRVGRSLTSREARELASAVDGMELEDGEGTALFRATIGHRGVLVLRHRSKPLSDAISNTDPAYERRGRFSVALEKYEPFIKLSNPLVEDEAAVLAARMLNEFTLKAVEILDSHPVNLAREKRGLLKANAILSRDAGGLPEEKPPSFQERFGLRGASIVEMVVERGISRYIGLDDIRVEIEGRAREEVYREEAARAVEALETHDLVYVHLKGPDEPGHDGSFEGKIRAVEDIDKHFFAPLLDRLSSAGLEPAFVVTSDHATPWDVGAHSGDPVPLMISHQSIQ	not soluble
MAEIDYKKVTGMIHSTESFGSVDGPGIRFIIFMQGCKMRCQYCHNPDTWEMETNNSKERTVEDVLKEALRYKHFWGKDGGITVSGGEAMLQIDFITALFIEAKKLGIHTTLDTCGFAYRATPEYHAILEKLLDVTDLVLLDLKEIDSEQHKIVTRQSNKNILQFARYLSDRGTPVWIRHVLVPGLTD	not soluble
